Experimental data published in article PMC2892170 (Biochemistry, 2009).

Target: the molecule itself
Assay: SEC

B1: Enterococcus faecalis phosphopantothenoylcysteine synthetase (enzyme, UniProt A0ACD6TE34 1-257, looked up)
chain: MDVLVTAGGTSEPIDNVRSITNHSSGGLGKAIAESFLAAGHTVTYVTTKHALRPTQQLDLSIKEIETTVELATTLEQLFAEKQFDAIVHAMAVSDFTTEAAQTEEQFIDSFTQQLSEQTLPKTKEALATIVQNTLNQIADIPQTATKISSDTDRLLIFLKKNPKVIQMIRDKQPQTVLVGFKLLVDVSQEELVQVAQAALVKNRCDFVLANDLMNVHETEHEGLLINETGIVQEACSKQGIGSMIVKNVEKKWREQQ
  stoichiometry N: 2
